Columns and labels:
[1] = target: T1, NrnCBh (Bartonella henselae, UniProt A0A0R4J6U7); assay: DraCALA nitrocellulose spot binding, radiolabelled ligand
T1 construct: gene rnd1

[2] = target: the molecule itself; assay: crystal structure
[3] = target: the molecule itself; assay: SEC-MALS
[4] = target: T2, NrnCBh (nano-RNase C) (Bartonella henselae, UniProt A0A0R4J6U7 1-206); assay: cryo-EM; only 3' dinucleotide resolved; DraCALA: 10 mM Tris-HCl pH 8, 100 mM NaCl, 5 mM CaCl2; temperature not stated; conditions: protein: recombinant; tags: tag-less (His6-SUMO removed by Ulp-1); chain copies: 8
T2 sequence: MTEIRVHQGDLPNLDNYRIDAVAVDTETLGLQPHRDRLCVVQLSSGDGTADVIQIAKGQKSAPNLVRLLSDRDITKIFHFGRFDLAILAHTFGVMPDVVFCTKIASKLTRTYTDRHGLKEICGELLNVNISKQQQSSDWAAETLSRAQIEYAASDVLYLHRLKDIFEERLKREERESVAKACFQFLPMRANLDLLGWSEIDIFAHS

[5] = target: T2, NrnCBh (nano-RNase C); assay: cryo-EM; DraCALA: 10 mM Tris-HCl pH 8, 100 mM NaCl, 5 mM CaCl2; temperature not stated; conditions: protein: recombinant; tags: tag-less (His6-SUMO removed by Ulp-1); chain copies: 8
[6] = target: T2, NrnCBh (nano-RNase C); assay: DraCALA (nitrocellulose); DraCALA: 10 mM Tris-HCl pH 8, 100 mM NaCl, 5 mM CaCl2; temperature not stated; conditions: protein: recombinant; tags: tag-less (His6-SUMO removed by Ulp-1); chain copies: 8

`Nc1nc2c(ncn2[C@@H]2O[C@H](COP(=O)(O)O[C@H]3[C@@H](O)[C@H](n4cnc5c(=O)[nH]c(N)nc54)O[C@@H]3COP(=O)(O)O[C@H]3[C@@H](O)[C@H](n4cnc5c(N)ncnc54)O[C@@H]3COP(=O)(O)O)[C@@H](O)[C@H]2O)c(=O)[nH]1` [pAGG] gave a Kd [1] of 3490 nM.

`Nc1nc2c(ncn2[C@@H]2O[C@H](COP(=O)(O)O[C@H]3[C@@H](O)[C@H](n4cnc5c(=O)[nH]c(N)nc54)O[C@@H]3COP(=O)(O)O)[C@@H](O)[C@H]2O)c(=O)[nH]1` [pGG] gave a Kd [1] of 17.7 nM.

B1: Bartonella henselae nano-RNase C (NrnC), wild type (enzyme)
chain: MTEIRVHQGDLPNLDNYRIDAVAVDTETLGLQPHRDRLCVVQLSSGDGTADVIQIAKGQKSAPNLVRLLSDRDITKIFHFGRFDLAILAHTFGVMPDVVFCTKIASKLTRTYTDRHGLKEICGELLNVNISKQQQSSDWAAETLSRAQIEYAASDVLYLHRLKDIFEERLKREERESVAKACFQFLPMRANLDLLGWSEIDIFAHS
notes: also called NrnCBh; wild-type NrnCBh
B1 was tested, and the “stoichiometry N” value [2] was 8.

B2: Bartonella henselae NrnC H205A (enzyme)
chain: MTEIRVHQGDLPNLDNYRIDAVAVDTETLGLQPHRDRLCVVQLSSGDGTADVIQIAKGQKSAPNLVRLLSDRDITKIFHFGRFDLAILAHTFGVMPDVVFCTKIASKLTRTYTDRHGLKEICGELLNVNISKQQQSSDWAAETLSRAQIEYAASDVLYLHRLKDIFEERLKREERESVAKACFQFLPMRANLDLLGWSEIDIFAAS
For B2, the “stoichiometry N” value [3] was 8.

B3: Brucella melitensis nano-RNase C (NrnC), wild type (enzyme)
chain: MTIRFHRNDLPNLDNYQVDAVAIDTETLGLNPHRDRLCVVQISPGDGTADVIQIEAGQKKAPNLVKLLKDRSITKIFHFGRFDLAVLAHAFGTMPQPVFCTKIASKLTRTYTDRHGLKEICSELLDVSISKQQQSSDWAAEVLSQAQLEYAASDVLYLHRLKAVLEQRLERDGRTKQAEACFKFLPTRSELDLMGWAESDIFAHS
notes: also called NrnCBm
B3 was tested, and the “stoichiometry N” value [2] was 8.

B4: Bartonella henselae NrnC D25A (enzyme)
chain: MTEIRVHQGDLPNLDNYRIDAVAVATETLGLQPHRDRLCVVQLSSGDGTADVIQIAKGQKSAPNLVRLLSDRDITKIFHFGRFDLAILAHTFGVMPDVVFCTKIASKLTRTYTDRHGLKEICGELLNVNISKQQQSSDWAAETLSRAQIEYAASDVLYLHRLKDIFEERLKREERESVAKACFQFLPMRANLDLLGWSEIDIFAHS
B4 was tested, and the “stoichiometry N” value [3] was 8.

B5: Bartonella henselae NrnC Y151A (enzyme)
chain: MTEIRVHQGDLPNLDNYRIDAVAVDTETLGLQPHRDRLCVVQLSSGDGTADVIQIAKGQKSAPNLVRLLSDRDITKIFHFGRFDLAILAHTFGVMPDVVFCTKIASKLTRTYTDRHGLKEICGELLNVNISKQQQSSDWAAETLSRAQIEAAASDVLYLHRLKDIFEERLKREERESVAKACFQFLPMRANLDLLGWSEIDIFAHS
In the case of B5, the “stoichiometry N” value [3] is reported as 8.

B6: Bartonella henselae NrnC L31A (enzyme)
chain: MTEIRVHQGDLPNLDNYRIDAVAVDTETLGAQPHRDRLCVVQLSSGDGTADVIQIAKGQKSAPNLVRLLSDRDITKIFHFGRFDLAILAHTFGVMPDVVFCTKIASKLTRTYTDRHGLKEICGELLNVNISKQQQSSDWAAETLSRAQIEYAASDVLYLHRLKDIFEERLKREERESVAKACFQFLPMRANLDLLGWSEIDIFAHS
notes: L-wedge mutant
With B6 the “stoichiometry N” value [3] was 8.

B7: Bartonella henselae NrnC H79A (enzyme)
chain: MTEIRVHQGDLPNLDNYRIDAVAVDTETLGLQPHRDRLCVVQLSSGDGTADVIQIAKGQKSAPNLVRLLSDRDITKIFAFGRFDLAILAHTFGVMPDVVFCTKIASKLTRTYTDRHGLKEICGELLNVNISKQQQSSDWAAETLSRAQIEYAASDVLYLHRLKDIFEERLKREERESVAKACFQFLPMRANLDLLGWSEIDIFAHS
notes: Phosphate cap mutant
For B7, the “stoichiometry N” value [3] was 8.

B8: Bartonella henselae NrnC K103A (enzyme)
chain: MTEIRVHQGDLPNLDNYRIDAVAVDTETLGLQPHRDRLCVVQLSSGDGTADVIQIAKGQKSAPNLVRLLSDRDITKIFHFGRFDLAILAHTFGVMPDVVFCTAIASKLTRTYTDRHGLKEICGELLNVNISKQQQSSDWAAETLSRAQIEYAASDVLYLHRLKDIFEERLKREERESVAKACFQFLPMRANLDLLGWSEIDIFAHS
notes: Phosphate cap mutant
In the case of B8, the “stoichiometry N” value [3] is reported as 8.

AGG (ssRNA, 5' phosphate) [pAGG]: binds [4].

AAAGG (ssRNA, 5' phosphate) [pAAAGG]: binds [5].

Molecule AAAAAGG (ssRNA, 5' phosphate) [pAAAAAGG] has a Kd [6] of 576 nM.

— paper PMC8492067 (eLife, 2021)
